This passage reports inter-subunit FRET efficiency results from article PMC8651296.

In experiment [1] the target is ctSTIM1 cysteine mutant at position 312 (C437S background) (human) (UniProt Q13586). As to the kind of experiment: FRET or BRET; single-molecule FRET (TIRF), symmetric inter-subunit: one cysteine mutant labelled with Alexa Fluor 555 and 647 mixed 1:1; single ctSTIM1 dimers in liposomes tethered by biotin-neutravidin; 20/150 TBS pH 7.4, room temperature. (Bioluminescence resonance energy transfer reports proximity on the nanometre scale.)

The target of experiment [2] is ctSTIM1 cysteine mutant at position 337 (C437S background) (human) (UniProt Q13586). Described as above.

Regarding “ctSTIM1 cysteine mutant at position 312 (C437S background) (from UniProt Q13586 233-685) (domain or fragment)”, the inter-subunit FRET efficiency in experiment [1] stood at 0.9.

Regarding “ctSTIM1 cysteine mutant at position 337 (C437S background) (from UniProt Q13586 233-685) (domain or fragment)”, the inter-subunit FRET efficiency in experiment [2] was 0.9.
